Experimental data published in publication PMC11429203 (Biomimetics, 2024).

Target: T1, human FGFR2 protein (His-tag) residue 403-822 (human, UniProt P21802-3 403-822)
T1 construct: fibroblast growth factor receptor 2 (FGFR2), human, residues 403-822 (cytoplasmic part with the kinase domain); docking used residues 461-763 of PDB 7OZY, another construct; also called FGFR2 kinase domain; FGFR2 protein kinase domain; source: bought: Thermo Fisher Scientific
Experiment: SPR; FGFR2 (10 µg/mL) coupled through NHS/EDAC to 11-mercaptoundecanoic acid on gold chips; peptides flowed at 50 nM, 100 nM, 1 µM, 50 µM and 100 µM in 1X PBS, 30 µL/min, 2000 s; KD by non-linear regression, mean of three runs
Conditions: both partners purified

T1 sequence (P21802 402-821): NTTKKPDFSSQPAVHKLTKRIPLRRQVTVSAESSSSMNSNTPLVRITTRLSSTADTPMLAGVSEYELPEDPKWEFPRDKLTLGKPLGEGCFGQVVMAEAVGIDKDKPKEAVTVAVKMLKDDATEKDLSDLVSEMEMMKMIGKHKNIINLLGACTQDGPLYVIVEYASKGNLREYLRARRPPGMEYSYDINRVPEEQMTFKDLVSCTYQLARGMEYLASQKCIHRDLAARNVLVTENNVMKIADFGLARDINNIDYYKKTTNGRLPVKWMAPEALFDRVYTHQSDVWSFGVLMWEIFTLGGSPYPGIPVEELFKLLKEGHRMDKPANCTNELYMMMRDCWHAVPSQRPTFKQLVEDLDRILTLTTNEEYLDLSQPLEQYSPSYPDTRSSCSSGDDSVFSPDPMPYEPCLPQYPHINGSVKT

B1: ACSAGLPHVLTPEAGATGASCA (Trimer-pep) (peptide)
peptide: ACSAGLPHVLTPEAGATGASCA
notes: Newly designed fusion peptide of 22 residues; also called fusion trimer peptide; source: synthetic peptide, custom-ordered from GenScript
- Kd: 7.53 µM

B2: ACSAG (A-pep) (peptide)
peptide: ACSAG
notes: Unconjugated peptide (no DOX, no fluorescein) in the SPR and antibody-staining experiments; also called ACSAG peptide; source: synthetic peptide, custom-ordered from GenScript
- Kd: 14.1 µM
